Laboratory results from patent US20150329626A1.

Biological target: human VEGFR2 on cells (ECFC, HMVEC-d) (human) (UniProt P35968)
Experiment: cell-based or functional assay

Chain of human VEGFR2 on cells (ECFC, HMVEC-d) (human) (P35968 20-1356): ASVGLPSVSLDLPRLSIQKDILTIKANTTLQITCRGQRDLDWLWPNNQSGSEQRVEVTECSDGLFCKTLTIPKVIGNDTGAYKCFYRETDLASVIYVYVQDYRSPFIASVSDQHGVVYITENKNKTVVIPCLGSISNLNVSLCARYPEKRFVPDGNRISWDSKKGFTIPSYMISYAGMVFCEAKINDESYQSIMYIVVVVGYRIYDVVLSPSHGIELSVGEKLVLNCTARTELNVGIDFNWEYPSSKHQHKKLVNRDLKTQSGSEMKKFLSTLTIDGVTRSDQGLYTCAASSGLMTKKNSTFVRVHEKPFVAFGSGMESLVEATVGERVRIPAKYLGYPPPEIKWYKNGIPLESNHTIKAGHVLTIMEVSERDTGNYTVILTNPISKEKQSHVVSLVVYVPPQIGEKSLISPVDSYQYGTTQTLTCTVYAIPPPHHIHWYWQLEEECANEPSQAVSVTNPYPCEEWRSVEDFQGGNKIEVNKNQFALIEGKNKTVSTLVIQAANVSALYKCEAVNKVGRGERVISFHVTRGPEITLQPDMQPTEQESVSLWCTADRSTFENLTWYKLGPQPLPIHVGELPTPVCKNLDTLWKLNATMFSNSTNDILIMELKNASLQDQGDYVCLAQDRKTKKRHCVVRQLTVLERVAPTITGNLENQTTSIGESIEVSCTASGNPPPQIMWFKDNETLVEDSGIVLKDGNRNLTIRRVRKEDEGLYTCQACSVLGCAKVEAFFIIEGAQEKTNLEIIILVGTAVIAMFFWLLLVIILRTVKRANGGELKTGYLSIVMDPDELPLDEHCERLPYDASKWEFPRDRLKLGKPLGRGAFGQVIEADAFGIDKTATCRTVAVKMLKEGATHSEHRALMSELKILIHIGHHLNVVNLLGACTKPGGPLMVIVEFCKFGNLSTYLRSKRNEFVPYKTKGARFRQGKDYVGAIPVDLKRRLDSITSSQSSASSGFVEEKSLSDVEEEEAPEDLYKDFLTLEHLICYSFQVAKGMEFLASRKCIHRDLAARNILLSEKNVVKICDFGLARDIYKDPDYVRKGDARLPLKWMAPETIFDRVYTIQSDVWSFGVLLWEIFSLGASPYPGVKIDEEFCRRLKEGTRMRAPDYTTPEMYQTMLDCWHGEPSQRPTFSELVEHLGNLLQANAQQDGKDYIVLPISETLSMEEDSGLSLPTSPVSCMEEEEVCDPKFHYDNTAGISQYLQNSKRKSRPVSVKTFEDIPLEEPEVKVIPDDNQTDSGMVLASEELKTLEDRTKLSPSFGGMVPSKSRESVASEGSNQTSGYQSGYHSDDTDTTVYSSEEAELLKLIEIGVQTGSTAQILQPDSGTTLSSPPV

inhibition of human VEGF165-induced proliferation of HMVEC-d (IC50): 31.4 nM
Substance: IMC-1121B (antibody)
